We go through 2 substances from paper PMC7505656.

Assay [1] concerns the target E-cadherin extracellular domain L175D cis-binding mutant, hexahistidine-tagged (human) (UniProt P12830). The assay is described as follows: single-molecule tracking cluster size distributions + kinetic Monte Carlo simulation; effective rate constants worked out from kMC on/off rates that were optimised so that simulated cluster size distributions match the experimental ones (1,250 E-cad/µm^2 in the simulation).

The target is the same in assay [2]. The assay can be described thus: single-molecule tracking (TIRFM), cluster size from trajectory friction factors; AF555 labelled E-cad on DOPC supported lipid bilayers with 5% DGS-NTA(Ni); high, intermediate and low surface coverage (~39,000, ~1,000, ~0.6 E-cad/µm^2); raw friction factor data adapted from Thompson et al., 2019 and analysed here.
Assay [3] addresses wild-type E-cadherin extracellular domain, hexahistidine-tagged (human) (UniProt P12830). The assay can be described thus: single-molecule tracking cluster size distributions + kinetic Monte Carlo simulation; effective rate constants worked out from kMC on/off rates that were optimised so that simulated cluster size distributions match the experimental ones (1,250 E-cad/µm^2 in the simulation).

The target is the same in assay [4]. The assay is described as follows: FRET or BRET; single-molecule intermolecular FRET by TIRF microscopy; intermediate-coverage wild-type (~1,000 E-cad/µm^2; 3 × 10^-7 M total in solution); AF555 donor, AF647 acceptor and unlabelled E-cad tethered by His6 to a DOPC/DGS-NTA(Ni) supported lipid bilayer; same buffer, pH 8; three-state Markov model. In general terms: Bioluminescence resonance energy transfer reports proximity on the nanometre scale.

Assay [5] has the same target. The assay can be described thus: single-molecule tracking (TIRFM), cluster size from trajectory friction factors; AF555 labelled E-cad on DOPC supported lipid bilayers with 5% DGS-NTA(Ni); high, intermediate and low surface coverage (~39,000, ~1,000, ~0.6 E-cad/µm^2); raw friction factor data adapted from Thompson et al., 2019 and analysed here.
In assay [6] the target is E-cadherin extracellular domain L175D cis-binding mutant, hexahistidine-tagged (human) (UniProt P12830). The assay can be described thus: FRET or BRET; single-molecule intermolecular FRET by TIRF microscopy; high-coverage mutant (~1,300 E-cad/µm^2; 5 × 10^-7 M total in solution); AF555 labelled wild-type donor with AF647 labelled mutant acceptor and unlabelled mutant, tethered by His6 to a DOPC/DGS-NTA(Ni) supported lipid bilayer; same buffer, pH 8; three-state Markov model.

Assay [7] concerns the target wild-type E-cadherin extracellular domain, hexahistidine-tagged (human) (UniProt P12830). The assay is described as follows: FRET or BRET; single-molecule intermolecular FRET by TIRF microscopy; high-coverage wild-type (~1,400 E-cad/µm^2; 5 × 10^-7 M total in solution); AF555 donor, AF647 acceptor and unlabelled E-cad tethered by His6 to a DOPC/DGS-NTA(Ni) 19:1 supported lipid bilayer; 25 mM HEPES, 100 mM NaCl, 10 mM KCl, 2 mM CaCl2, 0.05 mM NiSO4, pH 8; average dissociation rate constant from a three-state Markov model.

With “E-cadherin extracellular domain L175D cis-binding mutant, hexahistidine-tagged (from UniProt P12830 155-709) (domain or fragment)”, in assay [1], the effective koff, nonspecific cis-interaction is 1000 s⁻¹ and the effective kon, nonspecific cis-interaction was 1.1e+06 M⁻¹ s⁻¹. In assay [2], this substance came in with a characteristic cluster size of 29 E-cad and a cluster size (E-cad per cluster) of 40 E-cad.
The term koff denotes a measure of how fast the partners let go of each other. A higher koff goes with a short-lived complex. For “wild-type E-cadherin extracellular domain, hexahistidine-tagged (from UniProt P12830 155-709) (domain or fragment)”, in assay [3], the binding affinity, specific cis-interaction is 10 µM; the effective koff, specific cis-interaction was 100 s⁻¹; the effective kon, specific cis-interaction was 2.7e+06 M⁻¹ s⁻¹. This substance gave a koff in assay [4] of 3.17 s⁻¹. In assay [5], this substance returned a characteristic cluster size of 33 E-cad and a cluster size (E-cad per cluster) of 40 to 160 E-cad. In assay [6], the off-rate (koff) turned out to be 1.4 s⁻¹. Moreover, the koff in assay [7] stood at 1.04 s⁻¹.
